Common to all, as to assay: SPR, KD relative to WT C2;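 also: biacore SPR at 37 °C, anti-C2 mAbs captured via immobilised goat anti-human IgG, C2 alanine or serine surface mutants as analytes, 1:1 model fitted, double-referenced sensograms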
(In general: In SPR one partner is held on a chip, and binding of the other changes the refractive index at the surface.)

The target of one assay is T1, human C2 S278A (human, UniProt P06681 21-752).
T1 sequence: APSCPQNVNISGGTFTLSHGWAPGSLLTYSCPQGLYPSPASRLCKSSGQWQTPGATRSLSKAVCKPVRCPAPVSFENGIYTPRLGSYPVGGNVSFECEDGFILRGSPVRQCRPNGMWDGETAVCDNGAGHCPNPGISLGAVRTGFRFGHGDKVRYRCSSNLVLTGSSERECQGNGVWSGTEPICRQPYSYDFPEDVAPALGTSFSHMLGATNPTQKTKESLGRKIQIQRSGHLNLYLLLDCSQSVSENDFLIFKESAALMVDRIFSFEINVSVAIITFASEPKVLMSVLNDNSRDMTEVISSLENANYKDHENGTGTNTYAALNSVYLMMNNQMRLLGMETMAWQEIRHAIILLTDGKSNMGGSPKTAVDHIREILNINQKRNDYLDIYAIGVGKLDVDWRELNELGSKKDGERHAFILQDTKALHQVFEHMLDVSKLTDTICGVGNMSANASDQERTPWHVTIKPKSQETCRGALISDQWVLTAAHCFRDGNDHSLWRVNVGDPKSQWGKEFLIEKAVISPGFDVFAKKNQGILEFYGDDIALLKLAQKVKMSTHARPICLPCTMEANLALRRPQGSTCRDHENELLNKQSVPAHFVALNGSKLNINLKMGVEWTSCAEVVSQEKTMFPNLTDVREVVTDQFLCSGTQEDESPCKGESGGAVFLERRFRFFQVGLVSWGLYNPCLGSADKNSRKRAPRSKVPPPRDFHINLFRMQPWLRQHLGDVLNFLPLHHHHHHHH

A further assay has as its target T2, human C2 D417A (human, UniProt P06681 21-752).
T2 sequence: T1 sequence with A258S, D397A

The next assay has as its target T3, human C2 P650A (human, UniProt P06681 21-752).
T3 sequence: T1 sequence with A258S, P630A

Another assay addresses T4, human C2 G677A (human, UniProt P06681 21-752).
T4 sequence: T1 sequence with A258S, G657A

Substitutions are numbered along the chain they refer to.

Experimental for human C2 D417A: (§1) Surface plasmon resonance (SPR, Biacore) was used for all binding affinity analyses. In brief, goat anti-human IgG was directly immobilised onto the carboxymethyl dextran surface of CM5 sensorchips to approximately 12,000 RU using standard NHS/EDC chemistry at pH 5. The immobilised antibody surface was pre-conditioned with ten injections of polyclonal human IgG (Privigen 60 s) prepared at 1 μg/mL. Ligands (anti-C2 mAbs) were captured at the beginning of each cycle as described below. An adjacent spot or flow cell in which only Polyclonal IgG was capture was used as a reference surface. The goat anti-human IgG Fc antibody surface was regenerate in 100 mM H3PO4, injected for 45 seconds at the end of each cycle. Experiments were performed at 37° C. and the flow rate of each experiment was kept constant at 30 μL/min.
(§2) Sensogram data was double-referenced against a reference anti-IgG surface (i.e. minus anti-C2 mAb) and blank buffer injections obtained within each experiment. The binding data was fit to 1:1 (kinetic or steady-state) model using local Rmax and null refraction index (RI=0) when appropriate. Buffers and solutions were filtered (0.22 μm) prior to use.
Experimental for human C2 G677A: as §1, §2
Experimental for human C2 P650A: as §1, §2
Experimental for human C2 S278A: as §1, §2

B1: RF16-226 (antibody, human IgG4 S228P, lambda)
heavy: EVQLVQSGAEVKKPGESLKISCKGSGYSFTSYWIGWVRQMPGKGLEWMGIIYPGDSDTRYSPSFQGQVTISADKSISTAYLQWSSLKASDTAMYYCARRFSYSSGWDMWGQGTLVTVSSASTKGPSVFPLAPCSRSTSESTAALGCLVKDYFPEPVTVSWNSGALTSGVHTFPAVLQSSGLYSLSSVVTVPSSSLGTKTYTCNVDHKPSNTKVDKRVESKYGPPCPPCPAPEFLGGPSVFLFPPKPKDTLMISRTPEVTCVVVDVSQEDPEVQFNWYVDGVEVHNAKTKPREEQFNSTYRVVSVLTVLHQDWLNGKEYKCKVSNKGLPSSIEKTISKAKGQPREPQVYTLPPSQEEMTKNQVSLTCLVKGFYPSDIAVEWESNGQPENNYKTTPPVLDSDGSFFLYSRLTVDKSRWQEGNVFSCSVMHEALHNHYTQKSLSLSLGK
light: SYELTQPPSVSVSPGQTARITCSGDALTSKYVAWYQQKSGLAPLLVIYEDTRRPSGIPAKFSGSSSGSVATLTISGAHGDDEADYYCYSTDASGHQRVFGGGTKLTVLSQPKAAPSVTLFPPSSEELQANKATLVCLISDFYPGAVTVAWKADGSPVKAGVETTKPSKQSNNKYAASSYLSLTPEQWKSHRSYSCQVTHEGSTVEKTVAPTECS
notes: pH-dependent anti-C2 antibody from a phage display library; also called WT
For the molecule B1, the Fold diff turned out to be 1 fold with human C2 S278A, 2 fold with human C2 D417A, 2 fold with human C2 P650A and 1 fold in the assay with human C2 G677A.
